B1: ZC3HAV1 (protein, UniProt Q7Z2W4 2-902, looked up)
Zinc finger CCCH-type …: ADPEVCCFITKILCAHGGRMALDALLQEIALSEPQLCEVLQVAGPDRFVVLETGGEAGITRSVVATTRARVCRRKYCQRPCDNLHLCKLNLLGRCNYSQSERNLCKYSHEVLSEENFKVLKNHELSGLNKEELAVLLLQSDPFFMPEICKSYKGEGRQQICNQQPPCSRLHICDHFTRGNCRFPNCLRSHNLMDRKVLAIMREHGLNPDVVQNIQDICNSKHMQKNPPGPRAPSSHRRNMAYRARSKSRDRFFQGSQEFLASASASAERSCTPSPDQISHRASLEDAPVDDLTRKFTYLGSQDRARPPSGSSKATDLGGTSQAGTSQRFLENGSQEDLLHGNPGSTYLASNSTSAPNWKSLTSWTNDQGARRKTVFSPTLPAARSSLGSLQTPEAVTTRKGTGLLSSDYRIINGKSGTQDIQPGPLFNNNADGVATDITSTRSLNYKSTSSGHREISSPRIQDAGPASRDVQATGRIADDADPRVALVNDSLSDVTSTTSSRVDDHDSEEICLDHLCKGCPLNGSCSKVHFHLPYRWQMLIGKTWTDFEHMETIEKGYCNPGIHLCSVGSYTINFRVMSCDSFPIRRLSTPSSVTKPANSVFTTKWIWYWKNESGTWIQYGEEKDKRKNSNVDSSYLESLYQSCPRGVVPFQAGSRNYELSFQGMIQTNIASKTQKDVIRRPTFVPQWYVQQMKRGPDHQPAKTSSVSLTATFRPQEDFCFLSSKKYKLSEIHHLHPEYVRVSEHFKASMKNFKIEKIKKIENSELLDKFTWKKSQMKEEGKLLFYATSRAYVESICSNNFDSFLHETHENKYGKGIYFAKDAIYSHKNCPYDAKNVVMFVAQVLVGKFTEGNITYTSPPPQFDSCVDTRSNPSVFVIFQKDQVYPQYVIEYTEDKACVIS
B2: FTSJD2 (protein, UniProt Q8N1G2 1-835, looked up)
Cap-specific mRNA …: MKRRTDPECTAPIKKQKKRVAELALSLSSTSDDEPPSSVSHGAKASTTSLSGSDSETEGKQHSSDSFDDAFKADSLVEGTSSRYSMYNSVSQKLMAKMGFREGEGLGKYSQGRKDIVEASSQKGRRGLGLTLRGFDQELNVDWRDEPEPSACEQVSWFPECTTEIPDTQEMSDWMVVGKRKMIIEDETEFCGEELLHSVLQCKSVFDVLDGEEMRRARTRANPYEMIRGVFFLNRAAMKMANMDFVFDRMFTNPRDSYGKPLVKDREAELLYFADVCAGPGGFSEYVLWRKKWHAKGFGMTLKGPNDFKLEDFYSASSELFEPYYGEGGIDGDGDITRPENISAFRNFVLDNTDRKGVHFLMADGGFSVEGQENLQEILSKQLLLCQFLMALSIVRTGGHFICKTFDLFTPFSVGLVYLLYCCFERVCLFKPITSRPANSERYVVCKGLKVGIDDVRDYLFAVNIKLNQLRNTDSDVNLVVPLEVIKGDHEFTDYMIRSNESHCSLQIKALAKIHAFVQDTTLSEPRQAEIRKECLRLWGIPDQARVAPSSSDPKSKFFELIQGTEIDIFSYKPTLLTSKTLEKIRPVFDYRCMVSGSEQKFLIGLGKSQIYTWDGRQSDRWIKLDLKTELPRDTLLSVEIVHELKGEGKAQRKISAIHILDVLVLNGTDVREQHFNQRIQLAEKFVKAVSKPSRPDMNPIRVKEVYRLEEMEKIFVRLEMKIIKGSSGTPKLSYTGRDDRHFVPMGLYIVRTVNEPWTMGFSKSFKKKFFYNKKTKDSTFDLPADSIAPFHICYYGRLFWEWGDGIRVHDSQKPQDQDKLSKEDVLSFIQMHRA
B3: SLC3A2 (protein, UniProt P08195 1-630, looked up)
Amino acid transporter heavy …: MELQPPEASIAVVSIPRQLPGSHSEAGVQGLSAGDDSELGSHCVAQTGLELLASGDPLPSASQNAEMIETGSDCVTQAGLQLLASSDPPALASKNAEVTGTMSQDTEVDMKEVELNELEPEKQPMNAASGAAMSLAGAEKNGLVKIKVAEDEAEAAAAAKFTGLSKEELLKVAGSPGWVRTRWALLLLFWLGWLGMLAGAVVIIVRAPRCRELPAQKWWHTGALYRIGDLQAFQGHGAGNLAGLKGRLDYLSSLKVKGLVLGPIHKNQKDDVAQTDLLQIDPNFGSKEDFDSLLQSAKKKSIRVILDLTPNYRGENSWFSTQVDTVATKVKDALEFWLQAGVDGFQVRDIENLKDASSFLAEWQNITKGFSEDRLLIAGTNSSDLQQILSLLESNKDLLLTSSYLSDSGSTGEHTKSLVTQYLNATGNRWCSWSLSQARLLTSFLPAQLLRLYQLMLFTLPGTPVFSYGDEIGLDAAALPGQPMEAPVMLWDESSFPDIPGAVSANMTVKGQSEDPGSLLSLFRRLSDQRSKERSLLHGDFHAFSAGPGLFSYIRHWDQNERFLVVLNFGDVGLSAGLQASDLPASASLPAKADLLLSTQPGREEGSPLELERLKLEPHEGLLLRFPYAA
B4: DIABLO (protein, UniProt Q9NR28 22-239, looked up)
Diablo IAP-binding …: LCVPVVANFKKRCFSELIRPWHKTVTIGFGVTLCAVPIAQKSEPHSLSSEALMRRAVSLVTDSTSTFLSQTTYALIEAITEYTKAVYTLTSLYRQYTSLLGKMNSEEEDEVWQVIIGARAEMTSKHQEYLKLETTWMTAVGLSEMAAEAAYQTGADQASITARNHIQLVKLQVEEVHQLSRKAETKLAEAQIEELRQKTQEEGEERAESEQEAYLRED
B5: PSPC1 (protein, UniProt Q8WXF1 1-523, looked up)
Paraspeckle component 1: MMLRGNLKQVRIEKNPARLRALESAVGESEPAAAAAMALALAGEPAPPAPAPPEDHPDEEMGFTIDIKSFLKPGEKTYTQRCRLFVGNLPTDITEEDFKRLFERYGEPSEVFINRDRGFGFIRLESRTLAEIAKAELDGTILKSRPLRIRFATHGAALTVKNLSPVVSNELLEQAFSQFGPVEKAVVVVDDRGRATGKGFVEFAAKPPARKALERCGDGAFLLTTTPRPVIVEPMEQFDDEDGLPEKLMQKTQQYHKEREQPPRFAQPGTFEFEYASRWKALDEMEKQQREQVDRNIREAKEKLEAEMEAARHEHQLMLMRQDLMRRQEELRRLEELRNQELQKRKQIQLRHEEEHRRREEEMIRHREQEELRRQQEGFKPNYMENREQEMRMGDMGPRGAINMGDAFSPAPAGNQGPPPMMGMNMNNRATIPGPPMGPGPAMGPEGAANMGTPMMPDNGAVHNDRFPQGPPSQMGSPMGSRTGSETPQAPMSGVGPVSGGPGGFGRGSQGGNFEGPNKRRRY
B6: NFKB1 (protein)
chain: MAEDDPYLGRPEQMFHLDPSLTHTIFNPEVFQPQMALPTDGPYLQILEQPKQRGFRFRYVCEGPSHGGLPGASSEKNKKSYPQVKICNYVGPAKVIVQLVTNGKNIHLHAHSLVGKHCEDGICTVTAGPKDMVVGFANLGILHVTKKKVFETLEARMTEACIRGYNPGLLVHPDLAYLQAEGGGDRQLGDREKELIRQAALQQTKEMDLSVVRLMFTAFLPDSTGSFTRRLEPVVSDAIYDSKAPNASNLKIVRMDRTAGCVTGGEEIYLLCDKVQKDDIQIRFYEEEENGGVWEGFGDFSPTDVHRQFAIVFKTPKYKDINITKPASVFVQLRRKSDLETSEPKPFLYYPEIKDKEEVQRKRQKLMPNFSDSFGGGSGAGAGGGGMFGSGGGGGGTGSTGPGYSFPHYGFPTYGGITFHPGTTKSNAGMKHGTMDTESKKDPEGCDKSDDKNTVNLFGKVIETTEQDQEPSEATVGNGEVTLTYATGTKEESAGVQDNLFLEKAMQLAKRHANALFDYAVTGDVKMLLAVQRHLTAVQDENGDSVLHLAIIHLHSQLVRDLLEVTSGLISDDIINMRNDLYQTPLHLAVITKQEDVVEDLLRAGADLSLLDRLGNSVLHLAAKEGHDKVLSILLKHKKAALLLDHPNGDGLNAIHLAMMSNSLPCLLLLVAAGADVNAQEQKSGRTALHLAVEHDNISLAGCLLLEGDAHVDSTTYDGTTPLHIAAGRGSTRLAALLKAAGADPLVENFEPLYDLDDSWENAGEDEGVVPGTTPLDMATSWQVFDILNGKPYEPEFTSDDLLAQGDMKQLAEDVKLQLYKLLEIPDPDKNWATLAQKLGLGILNNAFRLSPAPSKTLMDNYEVSGGTVRELVEALRQMGYTEAIEVIQAASSPVKTTSQAHSLPLSPASTRQQIDELRDSDSVCDSGVETSFRKLSFTESLTSGASLLTLNKMPHDYGQEGPLEGKI
B7: SARM1 (protein, UniProt Q6SZW1 28-724, looked up)
NAD(+) hydrolase SARM1: LAVPGPDGGGGTGPWWAAGGRGPREVSPGAGTEVQDALERALPELQQALSALKQAGGARAVGAGLAEVFQLVEEAWLLPAVGREVAQGLCDAIRLDGGLDLLLRLLQAPELETRVQAARLLEQILVAENRDRVARIGLGVILNLAKEREPVELARSVAGILEHMFKHSEETCQRLVAAGGLDAVLYWCRRTDPALLRHCALALGNCALHGGQAVQRRMVEKRAAEWLFPLAFSKEDELLRLHACLAVAVLATNKEVEREVERSGTLALVEPLVASLDPGRFARCLVDASDTSQGRGPDDLQRLVPLLDSNRLEAQCIGAFYLCAEAAIKSLQGKTKVFSDIGAIQSLKRLVSYSTNGTKSALAKRALRLLGEEVPRPILPSVPSWKEAEVQTWLQQIGFSKYCESFREQQVDGDLLLRLTEEELQTDLGMKSGITRKRFFRELTELKTFANYSTCDRSNLADWLGSLDPRFRQYTYGLVSCGLDRSLLHRVSEQQLLEDCGIHLGVHRARILTAAREMLHSPLPCTGGKPSGDTPDVFISYRRNSGSQLASLLKVHLQLHGFSVFIDVEKLEAGKFEDKLIQSVMGARNFVLVLSPGALDKCMQDHDCKDWVHKEIVTALSCGKNIVPIIDGFEWPEPQVLPEDMQAVLTFNGIKWSHEYQEATIEKIIRFLQGRSSRDSSAGSDTSLEGAAPMGPT

Legend:
[1] = tested on: Hsp90 complexes in Mia-PaCa-2 cell extract; test: Nano-LC-MS/MS of PU-beads pull-downs; assay type: binding, human; settings: protein identified in PU-beads pull-down of Mia-PaCa-2 cell extract; QSTAR-Elite QTof MS
In short: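 Lysates pre-cleared overnight at 4 °C with control beads underwent PU-bead pull-down; bound proteins were SDS-eluted, gel-separated, digested and analyzed by nano-LC-MS/MS on a QTof. Identifications used significance p<0.05, 0.4 Da tolerances and one missed cleavage; unique peptide (spectral) counts and sequence coverage were reported.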

[2] = tested on: Hsp90 complexes in K562 cell extract; test: Nano-LC-MS/MS of PU-beads pull-downs; assay type: binding; settings: protein identified in PU-beads pull-down of K562 cell extract, QSTAR-Elite QTof MS
In short: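 Lysates pre-cleared overnight at 4 °C with control beads, then pulled down with PU-beads or control beads; eluted proteins (2% SDS boil) gel-separated and analysed by nano LC-MS/MS on a QTof. Mascot identification (p<0.05), spectral counts and sequence coverage evaluated in Scaffold.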

| Molecule | Number of Assigned Spectra, Mia-Paca 2 [1] | Number of Assigned Spectra, K562 Prep 1 [2] | Number of Assigned Spectra, K562 Prep 2 [2] |
| --- | --- | --- | --- |
| B1 | 0 | 7 | 0 |
| B2 | 0 | 3 | 1 |
| B3 | 0 | 3 | 0 |
| B4 | 2 | 1 | 0 |
| B5 | 0 | 5 | 2 |
| B6 | 2 | 1 | 0 |
| B7 | 5 | 0 | 0 |
